Experimental data published in PMC10889554, “An Unusual Two-Domain Thyropin from Tick Saliva: NMR Solution Structure and Highly Selective Inhibition of Cysteine Cathepsins Modulated by Glycosaminoglycans” (International Journal of Molecular Sciences, 2024).

Columns and labels:
Experiment in all cases: enzyme inhibition kinetics (fluorogenic peptide substrate activity assay); inhibitor preincubated with protease 15 min, 37 °C; IC50 from residual velocities, Ki by the Cheng-Prusoff equation; 50 mM sodium acetate pH 5.5, 0.1% polyethylene glycol 1500, 2.5 mM dithiothreitol (cathepsins L, K, V, B, F, C and papain; 50 mM NaCl for cathepsin C)
Details in all cases: both partners purified
human cathepsin K = biological target: T1, human cathepsin K (human, UniProt P43235 115-329)
T1 construct: source: Pichia pastoris expression system, as described previously [12,56,57]
T1 sequence (looked up): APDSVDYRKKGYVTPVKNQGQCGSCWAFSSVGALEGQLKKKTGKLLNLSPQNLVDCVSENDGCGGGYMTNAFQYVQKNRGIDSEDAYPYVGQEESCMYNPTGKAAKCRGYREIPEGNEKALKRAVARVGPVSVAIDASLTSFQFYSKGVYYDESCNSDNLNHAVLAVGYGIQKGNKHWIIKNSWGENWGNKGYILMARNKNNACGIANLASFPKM

Carica papaya papain = biological target: T2, Carica papaya papain (Carica papaya, UniProt P00784 134-345)
T2 construct: source: bought: Merck
T2 sequence (looked up): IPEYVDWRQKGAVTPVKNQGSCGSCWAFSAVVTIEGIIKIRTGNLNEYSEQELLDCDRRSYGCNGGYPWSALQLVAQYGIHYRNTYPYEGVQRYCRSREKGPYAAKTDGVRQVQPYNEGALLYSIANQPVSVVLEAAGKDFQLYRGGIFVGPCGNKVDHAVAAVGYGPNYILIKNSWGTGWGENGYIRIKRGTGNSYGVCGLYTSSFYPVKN

human cathepsin V = biological target: T3, human cathepsin V (human, UniProt O60911 114-334)
T3 construct: source: Pichia pastoris expression system, as described previously [12,56,57]

human cathepsin F = biological target: T4, human cathepsin F (human, UniProt Q9UBX1 271-484)
T4 construct: source: bought: Enzo Life Sciences
T4 sequence (looked up): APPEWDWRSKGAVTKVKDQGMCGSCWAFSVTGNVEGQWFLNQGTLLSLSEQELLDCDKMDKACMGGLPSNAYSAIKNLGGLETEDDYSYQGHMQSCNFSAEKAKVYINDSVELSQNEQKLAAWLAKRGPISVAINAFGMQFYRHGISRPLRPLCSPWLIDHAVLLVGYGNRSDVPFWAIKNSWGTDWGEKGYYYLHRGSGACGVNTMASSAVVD

human cathepsin L = biological target: T5, human cathepsin L (human)
T5 construct: source: Pichia pastoris expression system, as described previously [12,56,57]

T3 sequence (O60911 114-334): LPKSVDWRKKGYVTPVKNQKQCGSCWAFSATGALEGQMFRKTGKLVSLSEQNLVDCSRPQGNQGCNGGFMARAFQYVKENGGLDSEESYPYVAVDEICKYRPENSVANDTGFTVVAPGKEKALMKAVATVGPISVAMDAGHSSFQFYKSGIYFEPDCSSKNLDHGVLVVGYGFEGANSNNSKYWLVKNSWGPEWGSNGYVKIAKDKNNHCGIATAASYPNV

B1: IrThy-Nd, recombinant N-terminal Tg1 domain of IrThy (domain or fragment)
chain: SNAASVPTRVANHGASRPLSDCEQRKQREERNTGPLAIHIECNPDGSYKPMQCFGNPDQPRRMCACYDQEYDQIKAPSRQLKSCK
- Ki (human cathepsin K): 43.7 nM
- Ki (Carica papaya papain): 153 nM
- Ki (human cathepsin V): 27.2 nM
- Ki (human cathepsin F): 207 nM
- Ki (human cathepsin L): 179 nM
